This is an account of results in patent US20100292083A1 (Ablynx, published 2010).

Changes are numbered by the printed parent chain.

Sequences and labels used below:
B1: 32C9PMP2_B11 (VHH, name in Kabat numbering)
VHH: EVQLVESGGGLVQAGGSLRLSCAASGFTFDDYDIGWVRQAPGKEREWVSGISSSDGNTYYADSVKGRFTISSDNAKNTLYLQMNSLRPEDTAVYYCAAEPPDSSWYLDGSPEFFKYWGQGTQVTVSS
notes: Humanized 32C9 variant
B2: 32C9PMP2_G12 (VHH, name in Kabat numbering)
VHH: B1 VHH with D30S, V37F, E44G, W47G, S72R, R87K, P88A
notes: Humanized 32C9 variant
B3: 32C9PMP2_C6 (VHH, name in Kabat numbering)
VHH: B1 VHH with D30S, E44G
notes: Humanized 32C9 variant
B4: 32C9PMP2_E2 (VHH, name in Kabat numbering)
VHH: B1 VHH with A14P, D30S, V37F, R45L, W47G, R87K, P88A
notes: Humanized 32C9 variant
B5: 32C9PMP2_F3 (VHH, name in Kabat numbering)
VHH: B1 VHH with E44G, W47G, L79V, R87K, P88A, Q122L
notes: Humanized 32C9 variant
B6: 32C9PMP2_D10 (VHH, name in Kabat numbering)
VHH: B1 VHH with A14P, D30S, R45L, W47G, L79V, Q122L
notes: Humanized 32C9 variant
B7: P32C9PMP2_E12 (VHH, name in Kabat numbering)
VHH: B1 VHH with V37F, E44G, W47G, S72R, L79V, Q122L
notes: Humanized 32C9 variant
B8: 32C9PMP2_E1 (VHH, name in Kabat numbering)
VHH: B1 VHH with A14P, V37F, R45L, W47G, L79V
notes: Humanized 32C9 variant
B9: 32C9PMP2_B12 (VHH, name in Kabat numbering)
VHH: B1 VHH with A14P, D30S, V37F, L79V, R87K, P88A
notes: Humanized 32C9 variant
B10: 32C9PMP2_C3 (VHH, name in Kabat numbering)
VHH: B1 VHH with D30S, R87K, P88A
notes: Humanized 32C9 variant
B11: 32C9PMP2_F12 (VHH, name in Kabat numbering)
VHH: B1 VHH with E44G, W47G, Q122L
notes: Humanized 32C9 variant
B12: 32C9PMP2_G4 (VHH, name in Kabat numbering)
VHH: B1 VHH with E44G, W47G, S72R, R87K, P88A
notes: Humanized 32C9 variant
B13: Nanobody 32C9 (VHH)
VHH: B1 VHH with V37F, W47G, L79V, R87K
notes: Tested as periplasmic extract; also called 32C9 WT; IL6R04
B14: Nanobody IL6R65 (VHH)
VHH: EVQLVESGGGLVQPGGSLRLSCAASGSIFKVNAMGWYRQAPGKGRELVAGIISGGSTNYADSVKGRFTISRDNAKNTLYLQMNSLRPEDTAVYYCAFVTTNSDYDLGRDYWGQGTLVTVSS
notes: also called ILR65
B15: IL6R65PMP7F4 (VHH)
VHH: B14 VHH with S27T, I28T, A33V, G35A, S53N, N58T
notes: Also expressed in E. coli and purified via IMAC
B16: IL6R65PMP7G7 (VHH)
VHH: B14 VHH with S27T, I28T, V31I, A33I, G35A, I51V, S53T, S56N, N58T
notes: as for B15
B17: IL6R65PMP7G8 (VHH)
VHH: B14 VHH with I28T, K30R, V31I, A33V, G35A, I51V, S53N, G54D, N58T
notes: as for B15
B18: IL6R65PMP7C4 (VHH)
VHH: B14 VHH with S27T, I28T, K30R, V31I, A33V, G35A, S53T, G54N, N58S
notes: as for B15
B19: IL6R65PMP7D6 (VHH)
VHH: B14 VHH with K30R, A33V, G35A, G50A, I51V, S53N, S56T, N58T
notes: as for B15

In the first assay the target is T1, human IL6R (human, UniProt P08887 20-358, limits assumed).
T1 construct: Antigen of the Biacore experiments
T1 sequence (looked up): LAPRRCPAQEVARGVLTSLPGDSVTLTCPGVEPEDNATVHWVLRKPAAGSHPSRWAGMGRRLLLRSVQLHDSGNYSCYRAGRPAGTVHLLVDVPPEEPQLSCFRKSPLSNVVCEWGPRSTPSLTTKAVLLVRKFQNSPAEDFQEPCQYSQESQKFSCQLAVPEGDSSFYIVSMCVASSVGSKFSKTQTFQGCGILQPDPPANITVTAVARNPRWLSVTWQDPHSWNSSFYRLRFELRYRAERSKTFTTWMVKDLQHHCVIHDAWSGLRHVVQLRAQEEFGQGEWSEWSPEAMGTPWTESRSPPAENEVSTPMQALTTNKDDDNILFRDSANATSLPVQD
As to the kind of experiment: SPR (Biacore), periplasmic extract. How it is done: The oligos were dissolved in H₂O and subsequently pooled at a final concentration of 0.4 uM for each oligo. 5 and 1 ul of this mixture was used for assembly PCR in a 50 ul reaction volume. Full-length product was purified using the Qiagen PCR purification kit. The purified PCR product was then digested with SfiI and BsteEII and ligated into the corresponding sites of expression vector pAX51. E. coli TG1 cells were transformed with 2 ul of ligation mixture and plated on LB agar+100 ug/ml ampicillin+2% glucose. Plates were incubated overnight at 37° C. Individual colonies were picked and grown overnight in 2×YT+100 ug/ml ampicillin+2% glucose. Cloned Nanobody genes were amplified directly from these cultures with M13 forward and reverse primers. PCR products were purified and subsequently sequenced. In parallel the same panel of Nanobodies was expressed at 1 ml scale for 4 hours at 37° C. Periplasmic extracts were prepared and without further purification analyzed on Biacore for their ability to bind human IL6R.
(In SPR one partner is held on a chip, and binding of the other changes the refractive index at the surface.)
By koff is commonly meant the first-order rate constant of dissociation. As to B1, the koff amounted to 0.00768 s⁻¹.

For the molecule B2, the off-rate constant (koff) amounted to 0.000197 s⁻¹.

The molecule B3 had a koff of 0.00426 s⁻¹.

B4 displayed a koff of 0.00121 s⁻¹.

The molecule B5 yielded a dissociation rate constant (koff) of 0.000804 s⁻¹.

B6 had a koff of 0.00707 s⁻¹.

For the molecule B7, the off-rate constant (koff) was 0.000247 s⁻¹.

B8 displayed a koff of 0.00166 s⁻¹.

B9 came in with a koff of 0.00564 s⁻¹.

With B10, the off-rate constant (koff) turned out to be 0.0138 s⁻¹.

With B11, the off-rate constant (koff) turned out to be 0.000584 s⁻¹.

For the molecule B12, the koff stood at 0.0007 s⁻¹.

Turning to B13, the koff worked out at 0.000162 s⁻¹.

In the next assay the target is T2, soluble IL6R in human plasma (human, UniProt P08887 20-355, limits assumed).
T2 sequence (looked up): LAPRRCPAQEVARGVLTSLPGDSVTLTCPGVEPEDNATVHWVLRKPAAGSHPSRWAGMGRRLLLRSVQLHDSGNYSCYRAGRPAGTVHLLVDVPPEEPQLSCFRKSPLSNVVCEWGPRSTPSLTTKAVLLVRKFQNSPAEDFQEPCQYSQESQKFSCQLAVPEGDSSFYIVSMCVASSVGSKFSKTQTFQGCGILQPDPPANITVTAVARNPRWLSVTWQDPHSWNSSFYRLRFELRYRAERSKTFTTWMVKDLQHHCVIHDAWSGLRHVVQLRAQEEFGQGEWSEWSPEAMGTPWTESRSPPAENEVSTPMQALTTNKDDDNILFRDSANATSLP
As to the kind of experiment: human plasma potency assay: competition ELISA, inhibition of human IL6 binding to soluble IL6R. How it is done: All 5 Nanobodies and the parent Nanobody were also tested in a plasma potency assay. In this assay different concentrations of Nanobody are mixed with soluble IL6R containing plasma from either human or cynomolgus monkey and a fixed concentration of human IL6. After 1 hour of incubation the mixture is transferred to a Maxisorp plate coated with the anti-IL6R MAb BN-12 (Diaclone). The amount of IL6 bound was determined by subsequent addition of biotinylated anti-IL6 polyclonal antibody (R&D Systems) and streptavidin-HRP. TMB was used as substrate. Substrate conversion was measured at 450 nm.
A general note: ELISA stands for enzyme-linked immunosorbent assay.
What is called IC50 is the concentration at which inhibition is half-maximal. B14: the half-inhibitory concentration (IC50) worked out at 4.93 nM.

Regarding B15, the IC50 is 0.24 nM.

In the case of B16, the IC50 was determined as 0.22 nM.

Turning to B17, the concentration for half-maximal inhibition (IC50) came to 0.34 nM.

Turning to B18, the IC50 was 0.21 nM.

As for B19, the IC50 turned out to be 0.19 nM.

The next assay concerns the target T3, IL6R on the cell-surface of TF-1 cells (UniProt P08887 20-468, limits assumed).
T3 sequence (looked up): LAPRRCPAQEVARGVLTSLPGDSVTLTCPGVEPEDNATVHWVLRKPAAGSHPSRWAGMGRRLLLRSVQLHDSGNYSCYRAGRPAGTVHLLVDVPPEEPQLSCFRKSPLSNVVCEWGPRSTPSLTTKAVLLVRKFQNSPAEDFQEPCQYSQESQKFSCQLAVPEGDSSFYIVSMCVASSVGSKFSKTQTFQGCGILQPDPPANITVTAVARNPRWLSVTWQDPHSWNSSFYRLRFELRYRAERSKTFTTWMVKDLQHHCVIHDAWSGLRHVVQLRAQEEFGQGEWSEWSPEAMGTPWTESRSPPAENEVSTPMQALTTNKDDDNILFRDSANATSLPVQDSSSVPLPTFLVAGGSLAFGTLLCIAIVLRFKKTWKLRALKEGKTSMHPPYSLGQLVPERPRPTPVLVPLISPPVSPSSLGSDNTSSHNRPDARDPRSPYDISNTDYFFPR
Nature of the assay: cell-based or functional assay.
Take B14: the “Inhibition of IL6-dependent proliferation of TF-1 cells (3H-thymidine incorporation), IC50” value (“Inhibition” for short) was found to be 55 nM.

For B15, the “Inhibition” value stood at 5.2 nM.

Turning to B16, the “Inhibition” value worked out at 3.5 nM.

B17: the “Inhibition” value came out at 6.2 nM.

For the molecule B18, the “Inhibition” value worked out at 2.5 nM.

With B19, the “Inhibition” value amounted to 3.7 nM.

Another assay has as its target T1, human IL6R. Nature of the assay: SPR (Biacore), purified Nanobody. How it is done: Binding curves at different concentrations of purified Nanobody were recorded on Biacore and used to calculate values for ka, kd and Kd (Table B-4).
The Kd is the constant that tells how readily two partners part at equilibrium. Usually kon stands for the second-order rate constant of association. Molecule B14 gave a Kd of 4.3 nM, a koff of 0.00234 s⁻¹ and a kon of 539000 M⁻¹ s⁻¹.

The molecule B15 registered a dissociation constant Kd of 0.48 nM, a koff of 0.000292 s⁻¹ and a kon of 609000 M⁻¹ s⁻¹.

B16 had a Kd of 0.56 nM, a dissociation rate constant (koff) of 0.00031 s⁻¹ and a kon of 550000 M⁻¹ s⁻¹.

B17 had a Kd of 0.95 nM, an off-rate constant (koff) of 0.000333 s⁻¹ and an on-rate (kon) of 352000 M⁻¹ s⁻¹.

In the case of B18, the affinity, expressed as Kd, was 0.34 nM; the “fold improvement of Kd relative to the parent molecule (IL6R65)” value was 13 fold; the koff is 0.000177 s⁻¹; the kon was determined as 527000 M⁻¹ s⁻¹.

For the molecule B19, the equilibrium dissociation constant (Kd) turned out to be 0.42 nM, the koff amounted to 0.000279 s⁻¹ and the kon was found to be 672000 M⁻¹ s⁻¹.

In another assay the target is soluble IL6R in cynomolgus monkey plasma (cynomolgus monkey, UniProt A0A2K5WN54 60-396). As to the kind of experiment: cyno plasma potency assay: competition ELISA, inhibition of human IL6 binding to soluble IL6R.
soluble IL6R in cynomolgus monkey plasma, sequence (A0A2K5WN54 entry or part of it): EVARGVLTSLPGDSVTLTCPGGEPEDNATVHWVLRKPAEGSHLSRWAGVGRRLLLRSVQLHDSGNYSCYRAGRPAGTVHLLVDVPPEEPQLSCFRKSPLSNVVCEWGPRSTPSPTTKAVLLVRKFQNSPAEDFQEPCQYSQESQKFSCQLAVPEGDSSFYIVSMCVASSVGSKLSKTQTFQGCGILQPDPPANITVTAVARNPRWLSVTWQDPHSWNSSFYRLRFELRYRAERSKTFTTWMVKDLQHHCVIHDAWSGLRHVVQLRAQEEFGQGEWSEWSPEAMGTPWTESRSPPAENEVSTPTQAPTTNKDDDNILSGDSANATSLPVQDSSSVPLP
As for B14, the half-maximal inhibitory concentration (IC50) was 2.99 nM.

B15 came in with an IC50 of 0.09 nM.

As to B16, the IC50 stood at 0.11 nM.

As for B17, the IC50 was determined as 0.14 nM.

B18 returned an IC50 of 0.08 nM.

On to B19, for which the IC50 came to 0.09 nM.

In the next assay the target is T1, human IL6R. As to the kind of experiment: SPR (Biacore), periplasmic extract. This is another data set of the same source. As for the experimental part:
Selection outputs were analyzed by picking individual colonies and growing them overnight in 1 ml 2×YT (Yeast Tryptone) medium+100 ug/ml Carbenicillin at 37 C. Nanobody containing periplasmic extracts were prepared, diluted 1/10 in PBS and subsequently tested for antigen binding in ELISA. Clones with the highest ELISA signals were sequenced and analyzed on Biacore. […] The off-rate of the best clone from the CDR3 library was 7×10e-4 s-1.
Molecule B15 came in with an off-rate constant (koff) of 0.00026 s⁻¹.

B16 gave a koff of 0.00037 s⁻¹.

Take B17: the off-rate constant (koff) was 0.00041 s⁻¹.

The molecule B18 returned a dissociation rate constant (koff) of 0.00043 s⁻¹.

Regarding B19, the koff is 0.00044 s⁻¹.
